In publication PMC10126205, “A comparative analysis of lipoprotein transport proteins: LolA and LolB from Vibrio cholerae and LolA from Porphyromonas gingivalis” (Scientific Reports, 2023):
Several values for one entry are separate records, joined by “and”; a condition that tells them apart may be missing. Identical values can stand only once.

How the values were obtained:
LolA (LolA-PG) = target: T1, LolA (LolA-PG) (Porphyromonas gingivalis, UniProt B2RI10); test: isothermal titration calorimetry (single-site model, […] °C); type: binding
T1 construct: gene PGN_0486; LolA residues 27–215

LolB (Escherichia coli) = LolB (Escherichia coli) (UniProt P61320); settings: cited from earlier work
[1] = target: LolB from Vibrio cholerae (Vibrio cholerae); test: ITC; LolA injected on LolB-VC (750 µM and 100 µM); MicroCal auto-iTC200, 25 °C, 20 mM HEPES pH 7.5, 150 mM NaCl; heats of LolA on buffer subtracted; single site binding model; no lipoprotein present
[2] = target: LolB from Vibrio cholerae (Vibrio cholerae (strain A1552)); test: ITC; MicroCal auto-iTC200, 25 °C, 20 mM HEPES pH 7.5, 150 mM NaCl; LolA injected onto LolB, 20 injections, stirring 300 rpm; single site binding model; no lipoprotein present

N=C(N)SCc1ccc(Cl)c(Cl)c1 [A22]
Kd (LolA (LolA-PG)): 681 ± 44.1 µM

LolA (from UniProt P61316)
Kd (LolB (Escherichia coli)): 30.6 µM

LolA from Vibrio cholerae (from UniProt A5F2G9 17-198) (natural protein)
Kd [1]: 27.5 µM and 32.9 µM
stoichiometry N [1]: 0.72 and 0.83 and 0.78

B1: LolA from Vibrio cholerae (natural protein)
chain: APKDTLSERLAMSEGFSATFNQQVLSPEGKVILTGNGKVDIARPSLFRWETETPDENLLVSDGTTLWHFDPFVEQVTLYRAEEALEQTPFVLLTRNKASDWDAYHVEEKGDVFTLTPTALDSNQGRFQITISEKGVVQGFKVIEQDGQQSEFTFSKVKQQKPNASVFNYKVPKGVEVDDQRN
Kd [2]: 30.2 µM
